Test results reported in the DeepSol protein solubility set.

Assay: soluble on expression in E. coli; label from the status in PepcDB or PDB records
In the case of “MKNKAFGQIMDDAENPGFFKILRSADLSSEIMRGIPLNFIKSISEEELSAKMLLKVSWGSSWPIKICRNPSFYFMEKKGWDQFLSDNGLGNDEFLTFTHQGNMCFTVDIYQIDGKELLTPRRSATIASSSGRNKREQRNNIYKDVKEEEDIESWSESSYPGHKTAESTGRRQRLSLSNKKAKETEKSKKKKMKVESISYDSQDDSLSLVPEFTLTIKKSYLIFLGIPKMFEELHMPTEATMFKIHDPEGKRSWDVMYKFSNNQTRFCAGWIRLAKELGLEIGDVCTFTLIKPTEMLVRVSK”, the “soluble on expression in E. coli” value is reported as “soluble”.
In the case of “SDTMKVETIGKEIIKPSATTPTDLSTLQLSIMDILMPPVYAVAFLFYTKDDLISQEQTSHTLKTSLSEILTKFHPLAGRVNGVTIKSTDEGAVFVEARVDNCDLSGFLRSPDTESLKQLLPVDDEPAPTWPLLLVKATYFRCGGMAIGLCISHRLADAASLSIFLQAWAATARGESDLVASPDFCSTKLYPAANEAIKIPGEVVNRTSVTKRFVFVASKIEELRNKVASDVVPRPTRVQSVTSLIWKCVVTASTDTIREKALFQPANLRTKIPSLLSENQIGNLLFNSLILDGKAGMDIVETVKELQKRAEDLSGLVQDEEGSSMTIGWRLFGEIINSKFNREDHDMHSVTSWCKIPLYDACFGWGSPVWVAGSVSPNLDYVTVLIDSKDGQGIEAWVTLPQENMLLLEQSTELLAFASPNPSVLI”, the “soluble on expression in E. coli” value is reported as “soluble”.
In the case of “MSLSLRRIDHVSLRVRDVEEASRRWSAQFGLAVRERDGRRARLACDDEPYCLELLAAEAPGVEHVAYELRRSCTLEEAGRHFEGLGVPYEEHAGGLRVADPDGNRVLVLPYREPRERWVSHARAATDQIVGHPRRLGHVNFLTGRLSEGVEFYTRALGMRITDWLGEGGVWFHINADHHVMALVDKGYPHFHHLAFDVVDIGQMRVALDHLGRHGRWLGWGPVRHGIGGNIASYVRIVEEECFVELYCDMEQLEADHEVRRWPDNRFSSNTWGPLPPRSYFRFDEAAVASERESLEMLGHPLKEEVSSEGHHHHHH”, the “soluble on expression in E. coli” value is reported as “soluble”.
In the case of “HMIFAKGHGTQNDFVLLPDVDAELVLTAARVAALCDRRKGLGADGVLRVTTAGAAQAVGVLDSLPEGVRVTDWYMDYRNADGSAAQMCGNGVRVFAHYLRASGLEVRDEFVVGSLAGPRPVTCHHVEAAYADVSVDMGKANRLGAGEAVVGGRRFHGLAVDVGNPHLACVDSQLTVDGLAALDVGAPVSFDGAQFPDGVNVEVLTAPVDGAVWMRVHERGVGETRSCGTGTVAAAVAALAAVGSPTGTLTVHVPGGEVVVTVTDATSFLRGPSVLVARGDLADDWWNAMG”, the “soluble on expression in E. coli” value is reported as “soluble”.
With “MGSDKIHHHHHHMAHADIFNAIYTNKVWGNGSGEGSAEELTRDYRKFLHNFLRANHIRSVVDLGCGDWQFSRHMDWSGIEYCGIDVSSVVLETTRNFSAPNIRFQEMNGIEGELPSADLLICKDVVQHWSNTDILQLFPKLPRFRLALITNAFHPAITENQDIVTGDFRPLNLLAKPFDIKGSYIYCFMAGEPKGVFLWSRGD” the “soluble on expression in E. coli” value was “not soluble”.
In the case of “MGSDKIHHHHHHMMSLSNERLIHDPLEWDALVARYGLDCYYEYAYFKLAQEPEAVPEMYVHPSEFGILIYPYLKRRISGTPLQDLTTPYGYGGPVFVGLWSSDQIKDIRRHFLEYCQAERIVSETIRFHPLLENDELGRSWCETTTVLQQTVTVALSEPFEAIESQFSSMTRRNIRKAVREDVTVRVAGQEEYAKFIRLYRLTMDKHQADARYYFTDHYFRQFHDGRLPAELLVAEREGKIIAGCIVLYGQQFAHYHLGASDPAELSARPNHLLFAEMIRRAKALGKTALHLGGGTTRNEDDSLLAYKRSFSNRQTSFTLGTSVLHPLLYRQLSEQHFAHNVLSSQDWFPAYRTPVRQLSPRGEQSS”, the “soluble on expression in E. coli” value is reported as “not soluble”.
In the case of “MGSDKIHHHHHHMTQLIMRPRPGKIKLGLKASQAPAQLMDRLQYRPEVFEFFTSATDFEPEAFQTLKTAVQFVKTTVTEQIVIHHPMSYQGVHLDQLLDPHREAAAYQFLQTSTAQLLALATELDVKVLVHGGYGSDSGRLIDEYESLQVARDVVFERLDNLVRQASGHVVIENGVTASFMYGDPQLDERIIQHHYPLVCDLSHVFIALHGDMELTMLALKRLAPLIQHYHLVDSMGTRHDSLPLGQGLIDWQRVLPVLNPHATMIYEVPDETDATCANMLSSYHYLRALELRSIEGGQAND”, the “soluble on expression in E. coli” value is reported as “not soluble”.
In the case of “MKVSQVFISAISVFGLATSVNAQNASNTTSNAAPALHAQNGQLLNAGVVGAAVGGALAFLI”, the “soluble on expression in E. coli” value is reported as “soluble”.
In the case of “MGSDKIHHHHHHTCSACIQYHESCAWCGAPMFDEKKPYARCDSRAKLMEHGCPNSYIEDPATKLDITEDSKLSDQGQVESEEEAVQIKPQEMYVEIRPKSRVRFNVTYRQAVDYPVDLYYLMDLSYSMKDDKQKLSELGDLLAERMRTVTKNFRLGFGSFIDKKLMPFIDPRIEKQLSPCPTPCAEPYGFKHQMSLTTNTAKFKAEVDKAEISGNLDAPEGGFDAVVQALACNKTIGWRERARKMIVFSTDAGFHFAGDGRLAGVVEPNDGTCHLDREGYYTETLNQDYPSIALLHQMIKDRKANVIFAVTKNNQDLYTQLSNALPDVSSSVGVLANDSRNIVDLIEKEYLKISEKIIMVDNANASEGLKLTYRSMCLDGTTLKDTNVCEGIRVGDEVQFEVTLENTHCIDKRDFVLRIGPSGLDETLIVNVKVLCDC”, the “soluble on expression in E. coli” value is reported as “not soluble”.
With “MAHHHHHHMEWVPCTEQTGSVGCREGHCATSLQEKSTGEEWVLVVGGYCEGERDGAVMAARADGLPMLRWVRLDKPNMTWFECDGASLTHVTGDTAYFFGGLNEHMNHSNQLLCLSLHQGQQGDLSLDVVKVETTGDVPLPRARHSAGSAGRYFVVFGGETEDAEQNNDGYILDTDTMVWTRIPTGHQVPNPRLLAGPLVFYSPHGCILYGGAHFVNGDIRSMSDVWNLHIPLGGTWFNVSYGDGAPACRFPRSNGHAGGVLGRVGGETVVVFVGGKDAAEGCDRVKQVQPPKSAEDKFHLRLVDPVLAGGEGPHWRYTPAAVDTRRGVLLLGGQCRHPQEVAAFLLKQTGVTLQR” the “soluble on expression in E. coli” value was “not soluble”.
For “MTQRLQLTWYNKDKALIPTETGKYGYTWVDPSDPRYCETHTLIFDDYVQGAQTPKSDEFECSERADLQPQDDNLLILGESGDVLEALTRVPELAEKYVGKVKLVYIDPPFNTAQTFASYEDNLEHSIWLTMMRDRLIHMKKLLTNDGSIWVHLDDVEVHRMRVLMDEVFGADRFIATVAWEKDKGRRNDTDISGAHDLILIYAPSGRQWKNVRNLLPRLASQDARYQNPDNDPRGPWLQGDNGTAKSGTEKNRFPVTLPSGRVVTPKGRYWRFSPEGLAEARADGRVWFGKDGDSLPVIKRYLTDVQTGLVPRTWWNADEAGHNQEAKRDHLNKMFPEVENP”, the “soluble on expression in E. coli” value was “not soluble”.
With “MGSDKIHHHHHHMPPLPVLNRPQIHTSVTEISHAIDRTIKEELFPVAYTTEEEQYFKTNPKPAYIDELIKDAKEFIDLQYSLKRNKIVLITSGGTTVPLENNTVRFIDNFSAGTRGASSAEQFLANGYSVIFLHREFSLTPYNRSFSHSINTLFLDYIDSEGKIKPEFAENVLKNKKLYDKYMEKEEKLLLLPFTTVNQYLWSLKSIAKLLNNSGCLFYLAAAVSDFFVPYSRLPQHKIQSGDNGKMGANNDTEGTTRTTPDGKLIVNLDPVPKFLRRLVESWATQAMIVSFKLETDESMLLYKCTQALDRYNHQLVIGNLLQTRNKQVIFVSPENRKGDWVRLDEKHHIIEEMIIPEVIARHDKWVAHSKTKLATK” the “soluble on expression in E. coli” value was “not soluble”.
For “MCTQDEECSAPGGDKGKEKEEHTVVPRGKEEKEKKPGTKPSPISPAFKGTPKERPNCGKTKNETSGKKLRSNDVSPDVKDRLQLSEHGPSKTCIKDFQWLEDFITKMPCFHGFIGREDLMSVLKNVGDFLIRTSVQPNKHEVEKMKKNQADVKVLGNLSREKCAKKEKEKEEKLAGMGDVGRREFVISVYCKDKEKPATDKPQYTPIRNLVIKRDNGMVHVEPLRKFKTLTEFFGYYQKNSGICKETDFQLITPIPLSNWEFIHEDIALQQKKLGEGAFGEVRIGKMKLKSTKKTVEVAVKMLRNAEVVIREQVGELLHEARVMRMMDHKNVLRSYGIAVLKEPLYLMTEMCACGALREYLRENQETVTLAEKLFFVVGSSRGVQYLHSQKTIHRDLAVRNILLSEDRTPKISDFGLAKISERYEMKEQCKIPVRYLAPETLESFIFTTKTDVFSFGCVIWEIYENGNQPHDGKNAQTIRNLTKKNQFLKLTNSAPSELRKLIEERVFTSDPENRCSMTTIVQCAEKIEKPPVGMK”, the “soluble on expression in E. coli” value was “not soluble”.
For “MSLKVFLKKGKEKKVKHFYPWVFRDEVEKIEGEGIVAELYDSEGNFLALGTYSPYSRIAFRVLSYEREEVNEEFFKRRLRESELLRRDIPSNAYRLAFSESDLLSGLIIDRYGDAFVIQVRSYPMEILKEKVLKTLVEEFNPAFVYERSDFKGRREEGLKEFKGLLYGKLENPLIIEEREFKFLVDVVEGLKTGFYLDQRDNREYVRNLVKEGDRVLDLFCYSGGFSVYCANRGAKVVGVDINKRAVELARENAKLNSVKADFVLGNAFDFIQESKEEWDLIIADPPAIAKTKKEKESILWAIWKLAYYSFQKLKKGGSLFICSCTYQISSEEMIRQVRLASTDVKRRIIIKSLNLQPIDHPYLPTFPESLYLKCLHAIVIDEGHHHHHH”, the “soluble on expression in E. coli” value was “soluble”.
With “MRFLDRFFKKKKKEEALWTKCPNCKSLLYVPDLESNLKVCPNCDYHFTLSALERIKYTLDEENPELLFEEILPADPLNFKDTKSYKDRIKKAQEETGLSEAIVITEGHIKGKRAILAVMDFNFIGGSMGSVVGERFFRACERAVETKTPLISFAASGGARMQEGILSLMQMAKTTFGVGLLKEANIPYISVLTNPTMGGVSASFAFLGDLILAEPKALIGFAGPRVIEQTIKQKLPEGFQTAEFLLEKGQIDMVVHRKELKDKLAYFLEVMYYAKRLEHHHHHH” the “soluble on expression in E. coli” value was “not soluble”.
In the case of “MAHHHHHHMLSDNDLTFHIPSAGLRRMDAWTAPNPSVFSHLHLVGNPDWMSSFSASPQVAAARPALAPPAPVAIEPSAPRPLAAPAAIDAPAPATKKSFLSMFYRGSSNTVSSSVMPPKTSSASFAPMSAPPKALDAFDTPMQRALPVDAQLSVEHLSKLDAVDATISAAPRREPPHPMALGSDTWNALSSVPVPAKTAAGSARLLAPPASIDAVFSRDSKPLWSDLSFASRFRSTAPTLEAFRNAPPAPILSTPPRSPQHQATSSTATVATAFIPVPPKPVTASPLRDTAVSSVEAAAPATMPAARREPRAMAHPLVPVGEDAPAVVTPLLKPVQEIPMVSSKSANLAPSTVNATPPVWGPEPLSLASREPEPSALALPTEFAKSISRPTMQEAQRDEARAAANVRNFISTLFSGSGSDEMDSSTAGNRKADGFNALEFVTNRRGAQAKASQPVDYSTFFNTSLFEDDHDEDSEEGLEKLRRVVLMVMQSAKNSEGTCVSQPTSQSCRRGGGVDATGVAALTTFPSKYTEFSASYQTANNNNADDNEWMQFAR”, the “soluble on expression in E. coli” value is reported as “not soluble”.
With “MSLSSPNLSFYYNECERFESFLKNHHLHLESFHPYLEKAFFEMVLNGGKRFRPKLFLAVLCALVGQKDYSNQQTEYFKIALSIECLHTYSLIHDDLPCMDNAALRRNHPTLHAKYDETTAVLIGDALNTYSFELLSNALLESHIIVELIKILSANGGIKGMILGQALDCYFENTPLNLEQLTFLHEHKTAKLISASLIMGLVASGIKDEELFKWLQAFGLKMGLCFQVLDDIIDVTQDEEESGKTTHLDSAKNSFVNLLGLERANNYAQTLKTEVLNDLDALKPAYPLLQENLNALLNTLFKGEGHHHHHH” the “soluble on expression in E. coli” value was “soluble”.
For “MILFPQNEDTVMSEMVAFRQGTSMPSRETILHYVVETVNQITELEPALHLLPWSGVNSAIYEQRFAQCYDEGLCAAQTSAPNVPQGILPSTDWAQGIGLLCFAAGYMSAGERPLTHNQLCDFVKQAAVGLSPIEGEAASGFSTVRSIALPVFRRLQRDGHASRVLLLQTLLHLVAWKSASQYARQQAQRLLWMGGILGEGGEHSLLVLDKALREEAVGEKSLPALLIFTSFLAHFPAGPVFID”, the “soluble on expression in E. coli” value was “not soluble”.
For “APEAFLNSVLQPFVLPFLQRYPKIQLKLRAADGEIDLFRQGIDVAFKLTDKPDENLVLKEISKTNLVLCASPDYLAQRGMPEHPTQLEQHDCIYLAENDKDNIWSFFKEEAFHSIAVSGRYAVNHSQMRLNGVKAGLGIGIFHDFVVKEALERGEVVEVLSDWMIKSNYHGAVAMQYAQTKYMPARLRVFIGFVNEHLVSKEPTHV”, the “soluble on expression in E. coli” value was “not soluble”.
